{"source": "paper PMC7046635", "about": "“A combined experimental and modelling approach for the Weimberg pathway optimisation” (Nature Communications, 2020)", "key": {"purified protein [1]": {"substrate": "NC(=O)c1ccc[n+]([C@@H]2O[C@H](COP(=O)(O)OP(=O)(O)OC[C@H]3O[C@@H](n4cnc5c(N)ncnc54)[C@H](O)[C@@H]3O)[C@@H](O)[C@H]2O)c1", "assay": "purified protein", "type": "biochemical, Caulobacter vibrioides", "settings": "100 mM HEPES/NaOH pH 7.5, 37 °C, varied: cofactor"}, "purified protein [2]": {"substrate": "NC(=O)c1ccc[n+]([C@@H]2O[C@H](COP(=O)(O)OP(=O)(O)OC[C@H]3O[C@@H](n4cnc5c(N)ncnc54)[C@H](OP(=O)(O)O)[C@@H]3O)[C@@H](O)[C@H]2O)c1", "assay": "purified protein", "type": "biochemical, Caulobacter vibrioides", "settings": "100 mM HEPES/NaOH pH 7.5, 37 °C, varied: cofactor"}, "purified protein [3]": {"substrate": "O=CCCC(=O)C(=O)O", "assay": "purified protein", "type": "biochemical, Caulobacter vibrioides", "settings": "100 mM HEPES/NaOH pH 7.5, 37 °C, co-substrate NAD+"}, "purified protein [4]": {"substrate": "O=CCCC(=O)O", "assay": "purified protein", "type": "biochemical, Caulobacter vibrioides", "settings": "100 mM HEPES/NaOH pH 7.5, 37 °C, NAD(P)+"}, "purified protein [5]": {"substrate": "O=CCCCC=O", "assay": "purified protein", "type": "biochemical, Caulobacter vibrioides", "settings": "100 mM HEPES/NaOH pH 7.5, 37 °C, NAD(P)+"}, "purified protein [6]": {"substrate": "O=C(O)C(=O)C[C@H](O)CO", "assay": "purified protein", "type": "biochemical, Caulobacter vibrioides", "settings": "100 mM HEPES/NaOH pH 7.5, 37 °C, 5 mM NAD+"}, "[7]": {"substrate": "NC(=O)c1ccc[n+]([C@@H]2O[C@H](COP(=O)(O)OP(=O)(O)OC[C@H]3O[C@@H](n4cnc5c(N)ncnc54)[C@H](O)[C@@H]3O)[C@@H](O)[C@H]2O)c1", "assay": "purified protein, by the assay type", "set-up": "initial rate kinetics of purified recombinant enzyme, classical Michaelis-Menten fit", "text": "The five genes of the D-xylose operon, i.e., CCNA_00862–00866, were amplified by PCR using gene-specific primers (Supplementary Table 1) and the genomic DNA of C. crescentus NA1000 as template. The PCR products were cloned into pET (Novagen) expression vectors (Supplementary Table 1) and successful cloning was confirmed by sequencing (LGC genomics, Berlin). For expression, the respective plasmids were transformed into the E. coli BL21-pRIL (DE3) or Rosetta (DE3, Stratagene) (Supplementary Table 1). Overexpression was performed in LB medium containing the appropriate antibiotic. The cells were grown at 37 °C to an OD600 of 0.6–0.7 and induced with 1 mM isopropyl-β-D-thiogalactopyranoside. After induction, the cultures were further incubated at 37 °C for 4 h or at 30 °C or at 21 °C for 18–22 h (Supplementary Table 1), respectively. Cells were collected by centrifugation (15 min, 8630 × g, 4 °C) and the pellets were stored at −70 °C. Due to the choice of the vectors, all of the C. crescentus enzymes were N-terminally histidine tagged. The recombinant L-isoleucine dioxygenase from B. thuringiensis (BtDO) contained a C-terminal 6× histidine tag[47]. […] For XLA and KDXD, the inhibition constants for D-xylonate and KGSA, respectively, had to be fitted based on the conversion data, as these enzymes are analysed in coupled enzyme assays. […]"}, "purified protein [8]": {"substrate": "O=C1O[C@H](CO)[C@H](O)[C@H]1O", "assay": "purified protein", "type": "biochemical, Caulobacter vibrioides", "settings": "100 mM HEPES/NaOH pH 7.5, 37 °C, 5 mM NAD+"}}}
{"protein": "α-Ketoglutarate semialdehyde dehydrogenase (KGSADH) (Caulobacter vibrioides NA1000) (protein, full-length gene in pET vector, N-terminal His tag, E. coli expression, Ni-TED and size exclusion) MTDTLRHYIGGERVAADAPAESLNPSNTNDVVAKVPMGGQAEVDAAVDAARKAFPAWADASPEVRSDLLDKVGSTIIARSADIGRLLAREEGKTLAEGIGETVRAGRIFKYFAGEALRRHGQNLESTRPGVEIQTYRQAVGVYGLITPWNFPIAIPAWKAAPALAFGNTVVIKPAGPTPATANVLADIMAECGAPAGVFNMLFGRGSMGDALIKHKDVDGVSFTGSQGVGAQVAAAAVARQARVQLEMGGKNPLIVLDDADLERAVAIALDGSFFATGQRCTASSRLIVQDGIHDKFVALLAEKVAALRVGDALDPNTQIGPAVSEDQMETSYRYIDIAASEGGRVVTGGDRIKLDNPGWYVRPTLIADTQAGMRINNEEVFGPVASTIRVKSYEEALEIANGVEFGLSAGIATTSLKHARHFQRYARAGMTMVNLATAGVDYHVPFGGTKSSSYGAREQGFAAVEFFTQTKTSYSWS", "values": [{"measurement": "Km", "setting": "purified protein [1]; co-substrate KGSA", "result": 600, "unit": "µM"}, {"measurement": "Vmax", "setting": "purified protein [1]; co-substrate KGSA", "result": 49, "unit": "µmol/min/mg"}, {"measurement": "kcat", "setting": "purified protein [1]; co-substrate KGSA", "result": 41, "unit": "s⁻¹"}, {"measurement": "kcat/Km", "setting": "purified protein [1]; co-substrate KGSA", "result": 68000, "unit": "M⁻¹ s⁻¹"}, {"measurement": "Km", "setting": "purified protein [2]", "result": 20, "unit": "µM"}, {"measurement": "Km", "setting": "purified protein [3]", "result": 20, "unit": "µM"}, {"measurement": "Vmax", "setting": "purified protein [3]", "result": 49, "unit": "µmol/min/mg"}, {"measurement": "kcat", "setting": "purified protein [3]", "result": 41, "unit": "s⁻¹"}, {"measurement": "kcat/Km", "setting": "purified protein [3]", "result": "2.05e+06", "unit": "M⁻¹ s⁻¹"}, {"measurement": "Km", "setting": "purified protein [4]", "result": 400, "unit": "µM"}, {"measurement": "Km", "setting": "purified protein [5]", "result": 2510, "unit": "µM"}]}
{"protein": "2-Keto-3-deoxy-D-xylonate dehydratase (KDXD) (Caulobacter vibrioides NA1000) (protein, full-length gene in pET vector, N-terminal His tag, E. coli expression, Ni-TED and size exclusion) MGVSEFLPEDWKAATLLGRIDFGEGPTPVLVRGGRVEDVSKIAPTVADLMNAFQPGAVIPRGEDKGPLEALDIRPVWEDPDGAAPVKLLAPVDLQCLKAAGVTFAVSTLERVIEERARGDAGEALKIRTLLAERMGGDLKSVEPGSQGAQRLKDALIADGLWSQYLEVAIGPDAEIFTKGPTLSSMGWGDQVGVRYDSHWNNPEPEVVLLCDGSGLIRGAALGNDVNLRDFEGRSALLLSKAKDNNASCAIGPFFRLFDETFGLDDVRSAEVELKITGRDNFVLDGKSNMSLISRDPAVLAGQAYGKQHQYPDGFALFLGTMFAPIQDRDTPGQGFTHKVGDRVRVSTPKLGVLENEVTTCDKAKPWTFGISALIRNLAGRGLL", "values": [{"measurement": "Km", "setting": "purified protein [6]", "result": 210, "unit": "µM"}, {"measurement": "Vmax", "setting": "purified protein [6]", "result": 107, "unit": "µmol/min/mg"}, {"measurement": "kcat", "setting": "purified protein [6]", "result": 74, "unit": "s⁻¹"}, {"measurement": "kcat/Km", "setting": "purified protein [6]", "result": 352000, "unit": "M⁻¹ s⁻¹"}]}
{"protein": "D-xylose dehydrogenase (XDH) (Caulobacter vibrioides NA1000) (protein, full-length gene in pET vector, N-terminal His tag, E. coli expression, Ni-TED and size exclusion) MSSAIYPSLKGKRVVITGGGSGIGAGLTAGFARQGAEVIFLDIADEDSRALEAELAGSPIPPVYKRCDLMNLEAIKAVFAEIGDVDVLVNNAGNDDRHKLADVTGAYWDERINVNLRHMLFCTQAVAPGMKKRGGGAVINFGSISWHLGLEDLVLYETAKAGIEGMTRALARELGPDDIRVTCVVPGNVKTKRQEKWYTPEGEAQIVAAQCLKGRIVPENVAALVLFLASDDASLCTGHEYWIDAGWR", "values": [{"measurement": "Km", "setting": "purified protein [1]; co-substrate D-xylose", "result": 160, "unit": "µM"}, {"measurement": "Vmax", "setting": "purified protein [1]; co-substrate D-xylose", "result": 120, "unit": "µmol/min/mg"}, {"measurement": "kcat", "setting": "purified protein [1]; co-substrate D-xylose", "result": 57, "unit": "s⁻¹"}, {"measurement": "kcat/Km", "setting": "purified protein [1]; co-substrate D-xylose", "result": 356000, "unit": "M⁻¹ s⁻¹"}, {"measurement": "Km", "setting": "[7]", "result": 170, "unit": "µM"}]}
{"protein": "Xylonolactonase (XLA) (Caulobacter vibrioides NA1000) (protein, full-length gene in pET vector, N-terminal His tag, E. coli expression, Ni-TED and size exclusion) MTAQVTCVWDLKATLGEGPIWHGDTLWFVDIKQRKIHNYHPATGERFSFDAPDQVTFLAPIVGATGFVVGLKTGIHRFHPATGFSLLLEVEDAALNNRPNDATVDAQGRLWFGTMHDGEENNSGSLYRMDLTGVARMDRDICITNGPCVSPDGKTFYHTDTLEKTIYAFDLAEDGLLSNKRVFVQFALGDDVYPDGSVVDSEGYLWTALWGGFGAVRFSPQGDAVTRIELPAPNVTKPCFGGPDLKTLYFTTARKGLSDETLAQYPLAGGVFAVPVDVAGQPQHEVRLV", "values": [{"measurement": "Km", "setting": "purified protein [8]", "result": 450, "unit": "µM"}, {"measurement": "Vmax", "setting": "purified protein [8]", "result": 944, "unit": "µmol/min/mg"}, {"measurement": "kcat", "setting": "purified protein [8]", "result": 497, "unit": "s⁻¹"}, {"measurement": "kcat/Km", "setting": "purified protein [8]", "result": "1.1e+06", "unit": "M⁻¹ s⁻¹"}]}
